According to US20110135636A1 (SYMPHOGEN A S, published 2011):

B1: antibody 992 (antibody, human IgG1, kappa, V domains shown)
VH: EVQLQQPGSELVRPGASVKLSCKASGYTFTSYWMHWVKQRPGQGLEWIGNIYPGSRSTNYDEKFKSKATLTVDTSSSTAYMQLSSLTSEDSAVYYCTRNGDYYVSSGDAMDYWGQGTSVTVSS
VL: DIQMTQTTSSLSASLGDRVTISCRTSQDIGNYLNWYQQKPDGTVKLLIYYTSRLHSGVPSRFSGSGSGTDFSLTINNVEQEDVATYFCQHYNTVPPTFGGGTKLEIKR
notes: Chimeric mouse/human IgG1 kappa; the VL entry includes the human kappa constant region
B2: antibody 1024 (antibody, human IgG1, kappa, V domains shown)
VH: QVQLQQPGAELVEPGGSVKLSCKASGYTFTSHWMHWVKQRPGQGLEWIGEINPSSGRNNYNEKFKSKATLTVDKSSSTAYMQFSSLTSEDSAVYYCVRYYGYDEAMDYWGQGTSVTVSS
VL: DIVMTQAAFSNPVTLGTSASISCRSSKSLLHSNGITYLYWYLQKPGQSPQLLIYQMSNLASGVPDRFSSSGSGTDFTLRISRVEAEDVGVYYCAQNLELPYTFGGGTKLEIKR
notes: Chimeric IgG1 kappa
B3: antibody 1261 (antibody, human IgG1, kappa, V domains shown)
VH: EVQLVESGGGLVKPGGSLKLSCAVSGFTFSSYVMSWVRQTPEKRLEWVATITSGGRNIYYLDSVKGRFTISRDNAKNTLYLQMSSLRSEDTAMYYCARHEDYRYDGYYAMDYWGQGTSVTVSS
VL: QIVLTQSPAIMSASPGEKVTITCSASSSVSYMHWFQQKPGTSPKLWIYSTSNLASGVPARFSGSGSGTSYSLTISRMEAEDAATYYCQQRSSYPYTFGGGTKLELKR
notes: Chimeric IgG1 kappa
B4: antibody 1344 (antibody, human IgG1, kappa, V domains shown)
VH: QVQLKESGPGLVAPSQSLSITCTVSGFSLTIYGVHWVRQPPGKGLEWLGVIWAGGNTNYNSALMSRLSISKDNSKSQVFLKMNSLQTDDTAMYFCARGYGYNLDYWGQGTTLTVSS
VL: DIQMTQTTSSLSASLGDRVTISCSASQGISNYLNWYQQKPDGTVKLLIYYTSSLHSGVPSRFSGSGSGTDYSLTISNLEPEDIATYYCQQYSKLPYTFGGGTKLEIKR
notes: Chimeric IgG1 kappa
B5: antibody 1320 (antibody, human IgG1, kappa, V domains shown)
VH: QVQLQQPGAELVKPGASMKLSCKASGYTFTNYWMHWVKQRPGQGLEWIGEINPSNGRTNYNEKFKSKATLTVDKSSSTAYMQLSSLTSEDSGVYYCAKGGNYYDYDWDYWGQGTTLTVSS
VL: DIQMTQTTSSLSASLGDRVTISCSASQDISNYLNWYQQKPDGTVKLLIYHTSTLHSGVPSRFSGSGSGTDYSLTISNLEPEDIATYYCQQYSKLPWTFGGGTKLEIKR
notes: Chimeric IgG1 kappa
B6: antibody 1308 (antibody, human IgG1, kappa, V domains shown)
VH: EVQLQQSGAELVRPGSSVKISCKASGYAFSSYWMNWVRQRPGQGLEWIGQIYPGDGDTNYNGKFKGRATLTANKSSSTAYMQLSSLTSEDSAVYFCARRASSLYDVYPYYFDYWGQGTTLTVSS
VL: DIQMTQTTSSLSASLGDRVTISCRASQDISNYLNWYQQKPDGTVKVLIYYTSRLHSGVPSRFSGSGSGTDYSLTISNLEQEDIATYFCQQGNTLPYTFGGGTKLEIKR
notes: Chimeric IgG1 kappa
B7: antibody 1260 (antibody, human IgG1, kappa, V domains shown)
VH: QVQLKESGPGLVAPSQSLSITCTVSGFSLTTYGVHWVRQPPGKGLEWLGVIWAGGSTNYNSALMSRLSIKKDNSKSQVFLKMNSLQTDDTAMYYCARAYGYNFDYWGQGTTLTVSS
VL: DIQMTQTTSSLSASLGDRVTISCSASQGITNYLNWYQQKPDGTVKLLIYYSSSLHSGVPSRFSGSGSGTDYSLTISNLEPEDIATYYCQQYSEIPYTFGGGTKLELKR
notes: Chimeric IgG1 kappa
B8: antibody 1257 (antibody, human IgG1, kappa, V domains shown)
VH: EVQLQQSGPELVKPGASVKIPCKTSGYTFTDYNMAWVKQSHGKSLEWIGDIIPNNGGAIYNQKFKGKATLTVDKSSSTASMELRSLTSEDTAVYFCARKNIYYRYDGAGALDYWGQGTSVTVSS
VL: QIVLTQSPAIMSASPGEKVTMTCSASSSVSYIYWYQQKPGSSPRLLIYDASNLASGVPVRFSGSGSGTSYSLTISRMEAEDAATYYCQQWSSYPITFGSGTKLEIKR
notes: Chimeric IgG1 kappa
B9: antibody 1030 (antibody, human IgG1, kappa, V domains shown)
VH: EVQLVESGGGLVKPGGSLKLSCAASGFTFSSYALSWVRQTPERRLEWVASISGVGSTYFPDSVKGRFTMSRDNARNILYLQMSSLRSEDTAMYYCARGSDGYFYAMDYWGQGTSVTVSS
VL: DIVLTQSPASLAVSLGQRATISCRASKSVSTSGYSFMHWYQLKPGQPPKLLIYLASNLESGVPARFSGSGSGTDFTLNIHPVEEEDAATYYCQHSREFPLTFGGGTKLEIKR
notes: Chimeric IgG1 kappa
B10: antibody 1347 (antibody, human IgG1, kappa, V domains shown)
VH: QVQLKESGPGLVAPSQSLSITCTVSGFSLTGHGVNWVRQPPGKGLEWLGMIWGDGSTDYNSTLKSRLSISKDNSKSQVFLKMNSLQTDDTARYYCARGYGYLYYFDYWGQGTTLTVSS
VL: ENVLTQSPAIMSASPGEKVTMTCRASSSVSSSYLHWYQQKSGASPKLWIYSTSNLASGVPARFSGSGSGTSYSLTVNSVETEDAATYYCHQYSGFPFTFGSGTKLELKR
notes: Chimeric IgG1 kappa
B11: antibody 1284 (antibody, human IgG1, kappa, V domains shown)
VH: QVQLQQPGAELVKPGASVKLSCKASGYTFTSDWMHWMKQRPGQGLEWIGEINPSNGRSSYNEKFKSKATLTVDKSSSTAYMQLSSLTSEDSAVYYCARIGGIYVETYWGQGTLVTVSS
VL: DIVLTQSPASLAVSLGQRATISCRASQSVSTSTYSYMHWYQQKSGQPPKLLIKYASNLESGVPARFSGSGSGTDFTLNIHPVEEEDTATYYCQHSWEIPWTFGGGTKLEIKR
notes: Chimeric IgG1 kappa

Key:
[1] = target: T1, full length human EGFR expressed on the cell surface (human, UniProt P00533 25-1210); experiment: cell ELISA, IgG titrated on paraformaldehyde-fixed A431-NS cells; given as ED50
T1 construct: whole, on cells; also called EGFR on A431-NS cells; EGFR on HN5 cells
Procedure: (§1) Cell ELISA: The relative binding affinities defined as the molar concentration giving the half maximal OD (ED50) were determined by antibody titrations on A431-NS cells. Briefly, 10,000 A431-NS cells were grown in 96 well ELISA plates containing DMEM with added 0.5% FCS and 1% P/S at 37° C., 5% CO₂ overnight. […] Then 50 μl of a secondary Goat-anti-Human (Fab specific) HRP conjugate diluted 1:5000 in DMEM containing 1% BSA was added and incubated on ice for 30 min. Finally wells were washed four times with PBS and plates developed by adding 50 μl/well TMB Plus substrate and read at 620 nm every 5-15-30 min. After incubation with substrate the reaction was stopped by addition of 1 M H₂SO₄ and absorbance read at 450 nm. The functional affinity expressed as ED50 values were calculated by subtraction of the average background binding with secondary reagent only, followed by normalization of the binding curves by plotting % maximal binding relative to each antibody tested.

[2] = target: T2, recombinant human EGFR extracellular domain with 6xHis (human, UniProt P00533 25-645); experiment: SPR, reference cycle of the run with mix N=6
T2 construct: In-house produced; also called 6xHis EGFR ECD; soluble human EGFR ECD; not shown: 6xHis tag
Procedure: (§2) SPR analysis was performed on a Biacore 3000 machine containing four flow cells. A CM5 Biacore chip was conjugated with 10,000 Resonance units (Ru) polyclonal anti-His antibody to flow cells 1-4 according to the manufacturer's instructions. […] Immediately after antigen injection the maximal binding of the Anti-EGFR mAb without competition was established in each flow cell during a reference run. Briefly 5 μl antibody at a concentration of 40 μg/ml was injected over all flow cells with captured EGFR followed by stripping of the antibody/antigen complex with a low pH acid wash (10 sec. contact time with 10 mM Glycine-HCl, pH2). After the determination of Anti-EGFR antibody maximal binding to each flow cell, a competition run was performed during the same Biacore cycle. Flow cells were first saturated with EGFR ECD antigen followed by injection of different reference antibodies or Anti-EGFR antibodies into separate flow cells using the same antigen saturating conditions as outlined above. This step was immediately followed by a second injection of Anti-EGFR antibody over the flow cell saturated with EGFR antigen and competition antibody to minimize the dissociation of either antigen or blocking antibody. Then the antibody/antigen complexes were stripped off with a low pH acid wash (10 sec. contact time with 10 mM Glycine-HCl, pH 2) and the whole cycle beginning with the reference run was repeated with a new Anti-EGFR antibody. The degree of inhibition of tested Anti-EGFR antibodies were determined by comparing the Ru max value of the individual Anti-EGFR antibody before and after competition by introduction of report points recorded two seconds before and after injection of each sample.

[3] = target: T3, full length Cynomolgus EGFR expressed on CHO cells (Cynomolgus monkey (Macaca fascicularis), UniProt P55245 25-1210 (rhesus entry)); experiment: FACS on CHO cells transfected with full length Cynomolgus EGFR
T3 construct: The entry was cloned including the signal peptide; also called Cynomolgus full length EGFR
Procedure: Bound antibody was detected with a PE labelled goat F(ab′)₂ anti-human IgG FC. Gating was performed on uniform cells (SCC/FCS properties) expressing EGFR. Binding is expressed as % maximal antibody binding at 1 nM concentration.
Briefly quantitative FACS analysis was performed on a BD FACS array Bioanalyzer System to determine the number of EGFR molecules expressed on the surface of CHO cells transfected with either Human or Cynomolgus full length EGFR. […] Antibodies were incubated with cells for 14 hours on a shaker, to promote full antigen saturation at all antibody concentrations tested, while FACS buffer was added 0.02% NaN₃ and temperature kept at 4° C. to prevent receptor internalization. After incubation, cells were pelleted at 1200 RPM for 5 min at 4° C. and resuspended in 200 ul FACS buffer. Next cells were stained with a secondary Goat F(ab′)₂ anti-Human IgG FcGamma PE diluted 1:500 and incubated for 30 min at 4° C. on a shaker. Finally cells were washed twice in FACS buffer and analyzed on a BD FACS array Bioanalyzer System with gating on EGFR expressing CHO cells displaying uniform forward/side scatter properties.

[4] = target: T1, full length human EGFR expressed on the …; experiment: cell ELISA, IgG titrated on paraformaldehyde-fixed A431-NS cells
Procedure: as §1

[5] = target: T2, recombinant human EGFR extracellular …; experiment: SPR, reference cycle of the run with mix N=6-1
Procedure: as §2

[6] = target: T4, Cynomolgus EGFR extracellular domain (Cynomolgus monkey (Macaca fascicularis), UniProt P55245 25-645 (rhesus entry)); experiment: ELISA on cynomolgus EGFR ECD (Example 10)
T4 construct: Cloned without signal peptide; also called Cynomolgus rEGFR ECD; Cynomolgus EGFR ECD
Procedure: To verify that tested Anti-EGFR antibodies bound equally well to both Human and Cynomolgus EGFR ECD and accordingly warranting toxicology studies in Cynomolgus monkeys, serial four fold dilutions of antibodies beginning from 1 μg/ml were tested by ELISA for binding to recombinant Human and Cynomolgus EGFR ECD proteins. […] ELISA wells were coated with 50 μl/well of full length EGFR at a concentration of 1 μg/ml in PBS overnight at 4° C. The next morning wells were washed twice with PBS-T and blocked for one hour with 100 μl PBS-T-1% BSA at room temperature, followed by wash twice in PBS-T. Next 50 μl of serially diluted Anti-EGFR antibodies and control antibodies were added to wells and incubated for one hour at room temperature. After antibody incubation wells were washed five times with PBS-T, followed by incubation with 50 μl/well Streptavidin-HRP secondary reagent diluted 1:3000 in blocking buffer and incubation at room temperature for 30 min. Finally wells were washed five times with PBS-T and plates were developed by adding 50 μL/well TMB substrate and incubated at room temperature. After incubation the reaction was stopped by addition of 1 M H₂SO₄; 100 μl/well and plates were read at OD 450 nm.

| Binder | EC50 [1] | Rumax reference cycle [2] | EC50 (read off the curve) [3] | Log ED50 [4] | Rumax reference cycle [5] | binding result [6] | binding result [3] |
| --- | --- | --- | --- | --- | --- | --- | --- |
| B1 | 0.3 nM | 85 Ru | ~0.01 nM | -0.56 | 71 Ru | – | – |
| B2 | 0.3 nM | 110 Ru | ~0.008 nM | -0.49 | 122 Ru | – | – |
| B3 | – | 135 Ru | – | – | 139 Ru | binds | – |
| B4 | – | – | – | – | – | binds | – |
| B5 | – | – | – | – | – | no binding | no binding (tested: 1 nM) |
| B6 | – | – | – | – | – | binds | – |
| B7 | – | – | – | – | – | binds | – |
| B8 | – | – | – | – | – | binds | – |
| B9 | 1.5 nM | 87 Ru | – | 0.17 | 74 Ru | binds | – |
| B10 | – | 91 Ru | – | – | 107 Ru | binds | – |
| B11 | – | – | – | – | – | binds | – |
